{"source": "patent US9023353B2", "about": "“Anti-(+)—methamphetamine monoclonal antibodies” (Board of Trustees University of Arkansas, priority 2013, dated 2015)", "molecules": {"B1": {"name": "Antibody 51: high affinity murine anti-METH monoclonal antibody; light chain SEQ ID NO: 3, heavy chain SEQ ID NO: 4 (antibody)", "heavy": "EIQLQQSGPELGKPGASVKVSCRASGFSFADYYIYWVKQSHGKSLELIGYIDPFNGGDTYNQIFKGKATLTVDKSSSTAFMYLNSLTSEDSAVYYCAAFRNPSFDFWGQGTTLTVSSAKTTPPSVYPLAPGSAAQTNSMVTLGCLVKGYFPEPVTVTWNSGSLSSGVHTFPAVLQSDLYTLSSSVTVPSSTWPSETVTCNVAHPASSTKVDKKIVPRDCGCKPCICTVPEVSSVFIFPPKPKDVLTITLTPKVTCVVVDISKDDPEVQFSWFVDDVEVHTAQTQPREEQFNSTFRSVSELPIMHQDWLNGKEFKCRVNSAAFPAPIEKTISKTKGRPKAPQVYTIPPPKEQMAKDKVSLTCMITDFFPEDITVEWQWNGQPAENYKNTQPIMDTDGSYFVYSKLNVQKSNWEAGNTFTCSVLHEGLHNHHTEKSLSHSPGK", "light": "QIVLIQSPPIMSASPGEKVTLTCSASSSVSSRYLYWYQQKPGSSPKLWIYGTSNLASGVPARFSGSGSGTSFSLTISSMEAEDAASYFCHQWSSFPFTFGSGTKLEIKRADAAPTVSIFPPSSEQLTSGGASVVCFLNNFYPKDINVKWKIDGSERQNGVLNSWTDQDSKDSTYSMSSTLTLTKDEYERHNSYTCEATHKTSTSPIVKSFNRNEC", "modifications": "SYTHENSIZED"}}, "key": {"[1]": {"tested_on": "ch-Antibody 51", "test": "ligand cross-reactivity testing: inhibition of [3H]-METH binding to antibody", "source_text": "Ch-Antibody 51 was designed to maintain the variable framework regions of the heavy and light chains of the mouse antibody including all three CDRs of both the heavy and the light chains, but includes a human IgG2 Fc region. These studies were designed to examine the potential for ch-Antibody 51 to bind to structurally-related stimulants, neurotransmitters, selected medications, and other drugs of abuse (Table 4). The assay used a modified radioimmunoassay (RIA) in a competitive binding format with [^3H]-METH (similar to RIA in Peterson et al., J Pharmacol Exp Ther (2008) 325:124-133) The assay is started by incubating radiolabeled METH ([^3H]-METH) with unlabeled potential ligand (concentrations typically range from 0.03-5000 nM), ch-Antibody 51, and Protein G conjugated to magnetic beads. After reaching equilibrium, the beads with bound antibody and ligand are separated from the solution with a magnet and the supernatant aspirated. The amount of mAb-bound [^3H]-METH is quantified by liquid scintillation counting. For each of the related stimulants, a complete inhibition curve was constructed to determine the KD or KI value (see FIG. 7). For the remaining test ligands, the same method was used, but only 2 concentrations of ligand were tested rather than the expanded range. Additionally, highly concentrated pools of compounds were used to attempt inhibition of [^3H]-METH binding to ch-Antibody 51. If METH binding was inhibited 50% or more by any pool of ligands, the assay was repeated with the compounds separately to identify the individual cross reacting ligands.\nAverage disintegrations per minute (DPM) from the scintillation counter were plotted versus the concentration of unlabeled ligand using Origin software (OriginLab). A 4-parameter logistic function was fit to the data to obtain values describing the top and bottom plateaus, slope and mid-point. The mid-point of the curve identifies the concentration of unlabeled ligand required to inhibit 50% of the binding of [^3H]-METH. For homologous assays in which unlabeled METH competes with [^3H]-METH for binding to ch-Antibody 51, the dissociation constant (KD) is found by subtracting the concentration of [^3H]-METH from the mid-point. For non-homologous assays in which unlabeled ligands other than METH compete for binding with [^3H]-METH, the subtraction yields a KI value.\nEach pool was analyzed in triplicate, twice at each concentration.\nThree (3) of the pools inhibited binding of radiolabeled METH by more than 50%, therefore these individual ligands were retested at 1 μM in triplicate in 2 separate assays."}, "[2]": {"test": "long-term in vivo METH binding function during continuous sc (+)-METH infusion", "set-up": "species or system Sprague-Dawley rats", "conditions": "rats, single iv mAb dose 180 mg/kg, sc (+)-METH infusion 5.6 mg/kg/day, serum METH to day 13", "description": "FIG. 1 depicts two graphs showing changes in METH in vivo binding by anti-METH monoclonal antibodies (mAbs) in the presence of a 13 day continuous METH infusion. Once METH achieved steady-state levels (pre-mAb) in each of the Sprague-Dawley rats (n=2 per group), a single dose of vehicle treatment (METH only) or of treatment with three different anti-METH mAbs were given as an iv bolus (180 mg/kg, equimolar in binding sites to the METH body burden). Serum samples were collected before the mAb treatment and at various time points after mAb treatment for determination of METH concentrations over time (A). Values represent the mean METH concentration of each group for each time point. METH AUC data is shown in (B). […]\nAbout 16 h after pumps implantation, the rats were anesthetized with halothane. […] METH concentrations in serum samples were then determined by liquid chromatograph/mass spectrometry/mass spectrometry (LC/MS/MS) analysis by a previously reported method from our laboratory (Laurenzana E M et al. Drug Metab Dispos (1995) 23: 271-278).\nThe route of (+)-METH dosing was a subcutaneous (sc) infusion. […] Body weights, eating behavior, and general health observations were recorded for each animal. (+)-METH concentrations were determined by LC/MS/MS, similar to the method described by described by (Laurenzana E M et al. Drug Metab Dispos (1995) 23: 271-278). […]"}, "[3]": {"test": "(±)-METH priming-induced reinstatement (relapse) of lever pressing", "format": "in vivo, male Long Evans rat", "conditions": "for response rate (lever presses on reinforced lever): Day 1, 1 mg/kg ip (±)-METH prime", "description": "The male Long Evans rat was chosen as the animal model for this study because it is a preferred rodent species for preclinical toxicity testing of drug self-administration paradigms. Commercially obtained test chambers equipped with two retractable levers, a white cue light positioned above each lever, a 5-w house light, and a Sonalert® tone generator (MED Associates, Inc., St. Albans, Vt.) emitting a 2900 Hz, 60 dB tone were used. Infusions were delivered in a 0.2 ml volume by a 6-s activation of infusion pumps (Model PHS-100; MED Associates, Inc., St. Albans, Vt.). Recordings of lever presses and activations of lights, pumps, and Sonalerts® were accomplished by a microcomputer, interface and associated software (MED-PC® IV, MED Associates, Inc., St. Albans, Vt.).\n(±)-METH self-administration (SA) training sessions were conducted five days per week (M-F) for 2 hrs daily. At the start of (±)-METH SA sessions, the levers were extended and the house light was illuminated. […] At the start of an infusion the house light was extinguished, the Sonalert® was sounded, and the cue lights above each lever flashed at 3 Hz. The Sonalert® and cue lights remained activated during the 6 s infusion. Twenty seconds following the onset of the infusion the house light was re-illuminated, and the opportunity to self-administer (±)-METH was again made available (i.e., each (±)-METH infusion initiated a 20 s period during which lever presses were recorded but were without scheduled consequences and further infusions could not be obtained). Reinforced-lever (right-side) lever presses during the infusions as well as all non-reinforced (left-side) lever presses were recorded, but the latter were without scheduled consequences.\nSA training continued until all three criteria had been met: 1) at least 12 self-administration sessions occurred; 2) at least 15 (±)-METH infusions occurred during each of the last four sessions; and, 3) at least 125 lifetime (±)-METH infusions were obtained. Subsequently, twelve 2-h daily (Mon-Sun) extinction sessions were conducted. […] Other conditions during extinction were identical to those during SA. That is, during extinction sessions, both levers were extended and the house light was activated. Before the last four extinction sessions, an injection of saline (the vehicle for (±)-METH prime) was administered ip 30 min pre-session to acclimate the rats to the injection procedure.\nReinstatement testing followed extinction training. A rat was considered eligible for subsequent reinstatement testing if during the last three extinction sessions the mean number of reinforced-lever lever presses was less than the mean number occurring during the first three extinction sessions. […] One rat in the vehicle group was inadvertently retained, even though its response mean (12.3 responses) during the last three extinction sessions exceeded its first three extinction sessions (11.6 responses). Reinstatement testing occurred across 13 daily (Mon-Sun) 2-h experimental sessions. Conditions during reinstatement testing were identical to those during extinction training with two exceptions.\nThe ip route of (±)-METH exposure during relapse testing was selected mainly for convenience of dosing and to avoid additional use of the catheters. […] The dose volume for each animal was based on the most recent body weight measurement.\nBody weights, eating behavior, and general health observations were recorded for each animal. Analyses of an animal's lever pressing responses to vehicle and (±)-METH-induced relapse to active lever responding were used as a measure of the animal's response to an ip injection of vehicle (control) or (±)-METH (1.0 mg/kg).\nInitially, the number of right-side lever presses occurring during test days between test groups was compared using a two-factor, repeated measures ANOVA (Prism 5 for Macintosh, GraphPad Software, Inc., San Diego, Calif.). […]"}, "[4]": {"test": "terminal elimination half-life in rats", "format": "in vivo", "conditions": "unpublished finding"}, "[5]": {"conditions": "individual ligands at 1 μM, triplicate in 2 assays, average"}}, "note": "Entries after “also recorded” stand apart in the source; their conditions may differ.", "data": [{"molecule": "NCCc1ccc(O)cc1", "note": "[Tyramine]", "values": [{"measurement": "Percent inhibition of [3H]-METH binding", "setting": "[1]; ligand pool, each inhibitor in pool 1 μM", "result": 2.1, "unit": "%"}, {"measurement": "Percent inhibition of [3H]-METH binding", "setting": "[1]; ligand pool, each inhibitor in pool 10 μM", "result": 7.5, "unit": "%"}]}, {"molecule": "NCCc1ccccc1", "note": "[2-Phenylethylamine]", "values": [{"measurement": "Percent inhibition of [3H]-METH binding", "setting": "[1]; [5]", "result": 20.0, "unit": "%"}]}, {"molecule": "CNC(C)Cc1ccc2c(c1)OCO2", "note": "(single isomer, unassigned; (-)) [(−)-MDMA]", "values": [{"measurement": "Percent inhibition of [3H]-METH binding", "setting": "[1]; [5]", "result": 78.3, "unit": "%"}, {"measurement": "Ki", "setting": "[1]; inferred from more than 50% inhibition at 1 μM", "result": "< 1", "unit": "µM"}]}, {"molecule": "(+)-Norpseudoephedrine", "values": [{"measurement": "Percent inhibition of [3H]-METH binding", "setting": "[1]; [5]", "result": 36.3, "unit": "%"}]}, {"molecule": "(+)-Pseudoephedrine", "values": [{"measurement": "Percent inhibition of [3H]-METH binding", "setting": "[1]; [5]", "result": 5.1, "unit": "%"}]}, {"molecule": "CN[C@@H](C)[C@H](O)c1ccccc1", "note": "(racemic) [(±)-Ephethine]", "values": [{"measurement": "Percent inhibition of [3H]-METH binding", "setting": "[1]; [5]", "result": 26.1, "unit": "%"}]}, {"molecule": "CC(N)Cc1ccc2c(c1)OCO2", "note": "(single isomer, unassigned; (+)) [(+)-MDA, (+) 3,4-methylenedioxyamphetamine]", "values": [{"measurement": "Percent inhibition of [3H]-METH binding", "setting": "[1]; [5]", "result": 40.7, "unit": "%"}]}, {"molecule": "CNC[C@H](O)c1cccc(O)c1", "note": "[(−)-Phenylephrine]", "values": [{"measurement": "Percent inhibition of [3H]-METH binding", "setting": "[1]; [5]", "result": 38.2, "unit": "%"}]}, {"molecule": "B1", "values": [{"measurement": "long-term in vivo METH binding function", "setting": "[2]", "result": "showed long-term functional properties"}, {"measurement": "responding with subsequent treatments every three days", "setting": "[3]; 30 mg/kg iv", "result": "maintained responding at levels always higher than the control"}, {"measurement": "increase over control values", "setting": "[3]; 30 mg/kg iv, Day 1", "result": 143, "unit": "%"}, {"measurement": "response rate (lever presses on reinforced lever)", "setting": "[3]; 30 mg/kg iv", "result": 70, "unit": "presses"}, {"measurement": "responding with subsequent treatments every three days", "setting": "[3]; 56 mg/kg iv", "result": "progressively lower responses from the Day 1 level of responding"}, {"measurement": "increase over control values", "setting": "[3]; 56 mg/kg iv, Day 1", "result": 182, "unit": "%"}, {"measurement": "response rate (lever presses on reinforced lever)", "setting": "[3]; 56 mg/kg iv", "result": 91, "unit": "presses"}, {"measurement": "lever presses", "setting": "[3]; 100 mg/kg iv, Day 1", "result": "~50", "unit": "lever presses"}, {"measurement": "responding compared to vehicle", "setting": "[3]; 100 mg/kg iv, Day 1", "result": "at the same level as vehicle treatment responding"}, {"measurement": "apparent METH dose on ascending side of simulated dose-response curve", "setting": "[3]; 100 mg/kg iv, Day 1, pharmacodynamic simulation, 50 responses", "result": "~0.025", "unit": "mg/kg/inj"}, {"measurement": "responding compared to control", "setting": "[3]; 100 mg/kg iv, Day 7, after third dose", "result": "significantly reduced; also recorded: near extinction"}, {"measurement": "responding", "setting": "[3]; 100 mg/kg iv, Day 10, administration stopped", "result": "remained blunted"}, {"measurement": "responding", "setting": "[3]; 100 mg/kg iv, Day 13, administration stopped", "result": "return to near control levels of responding"}, {"measurement": "responding compared to control", "setting": "[3]; 100 mg/kg iv, after the second administration", "result": "reduced responding below control levels"}, {"measurement": "terminal elimination half-life", "setting": "[4]", "result": "~140", "unit": "h"}]}]}
